In the supplement of paper PMC10201428:
± gives the standard deviation of the averaged measurements.

Tests used:
[1] = test system: VchCAST RNA-guided transposition machinery (E. coli BL21(DE3) host, lacZ target); assay: relative integration efficiency (T-RL orientation) vs wild-type transposon end (log2 (normalized fold change)); transposon end mutated: right end (5 bp flank + 75 bp right end); higher = more efficient transposition
Summary of the method: (§1)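 Each barcoded pool, 1549 left-end or 1849 right-end transposon variants in a pUC57 mini-transposon donor, went into E. coli BL21(DE3) with a T7-driven effector plasmid (CRISPR array, tniQ-cas8-cas7-cas6, tnsA-tnsB-tnsC). Plates contained 0.1 mM IPTG and were held at 37°C for 18 h. Input plasmids and genomic integration junctions were PCR-amplified and read by Illumina sequencing, with two biological output replicates and four reference barcodes. Relative integration efficiency is the fold change of output over input barcode abundance, normalised to the reference barcodes and log-transformed.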

[2] = test system: VchCAST RNA-guided transposition machinery (E. coli BL21(DE3) host, lacZ target); assay: relative integration efficiency (T-LR orientation) vs wild-type transposon end (log2 (normalized fold change)); transposon end mutated: right end (5 bp flank + 75 bp right end); higher = more efficient transposition
Summary of the method: as §1

Row | Sequence | relative integration efficiency (log2) [1] | relative integration efficiency (log2) [2]
1 | ACATTTGTTGATACAACCATAAAGTGATATTTACACCCATAAATTGATATTGCTCACAACCATAAAATGATAATTACTCTGATCATAGTCAGACCAACATTGCTACGACCCGTATTCGCACCGACAC | -0.254 ± 0.19 | 0.169 ± 0.17
2 | ACATTTGTTGATACAACCATAATTTGATAATTACACCCATAATATGATAATTATCACACCCATAATATGATATTGCCTCTGATCATAGTCAGACCAACATTGCTACGACCCGTATTCGCACCGACAC | -0.651 ± 0.15 | -0.228 ± 0.16
3 | ACATTAGTTCATACAACCATAAAATGATAATTACACCCATAAATGGATAATTATCACACCCAATTTAACTATAACGCTCTGATCATAGTCAGACCAACATTGCTACGACCCGTATTCGCACCGACAC | -6.74 ± 0.15 | -3.62 ± 0.12
4 | ACATTTGTTCATACAACCCTAAAATGATAATTACACCCATAAATGGATCATTATCACCCCCAATTTAACTATAACGCTCTGATCATAGTCAGACCAACATTGCTACGACCCGTATTCGCACCGACAC | -4.59 ± 0.14 | -3.98 ± 0.81
5 | ACATTTGTTGATATGTTGACAACCATAAAATGATAATTACACCCATAAATTGATAATTATCACACCCATAAATTGATATTGCCTCTGATCATAGTCAGACCAACATTGCTACGACCCGTATTCGCAC | -6.69 ± 0.15 | -5.78 ± 1.9
6 | ACATTTGTCAACCATAAAATGATAATTACACCCATAAATTGATAATTATCACACCCATAAATTGATATTGCCTCTGATCATAGTCAGACCAACATTGCTACGACCCGTATTCGCACCGACACTGACT | -6.76 ± 0.31 | -4.8 ± 0.66
7 | ACATTTGTTGATACAACCATAAAATGATAATTACACCCATAAATTGATAATTATCACACCCATAAATTGATATTGCCTCTTTGTGAGCGGATAACAAGATCATAGTCAGACCAACATGCACCGACAC | -0.26 ± 0.07 | -0.434 ± 0.17
8 | ACTAAAGTTGATACAACCATAAAATGATAATTACACCCATAAATTGATAATTATCACACCCATAAATTGATATTGCCTCTGATCATAGTCAGACCAACATTGCTACGACCCGTATTCGCACCGACAC | -6.65 ± 0.58 | -4.99 ± 1.1
9 | ACATTTGTTGATACAACCATAAAATGATAATTCAACCCATAAATTGATAATTATCACACCCATAAATTGATATTGCCTCTGATCATAGTCAGACCAACATTGCTACGACCCGTATTCGCACCGACAC | 0.0959 ± 0.067 | 0.119 ± 0.3
10 | ACATTTGTTGATTGTTCCATAAAATGATAATTACACCCATAAATTGATAATTATCACACCCATAAATTGATATTGCCTCTGATCATAGTCAGACCAACATTGCTACGACCCGTATTCGCACCGACAC | -1.3 ± 0.19 | -1.3 ± 0.53
11 | ACATTTGTTGATACAACCATAAAATGATAATTACTCTGATCATAGTCAGACCACACCCATAAATTGATAATTATCACACCCATAAATTGATATTGCACATTGCTACGACCCGTATTCGCACCGACAC | -4.6 ± 0.057 | -2.36 ± 0.32
12 | ACATTTGTTGATACAACCATAAAATGATCATTCACCCCTAAATTGATAATTATCACACCCACATTTAACTATAACGCTCTGATCATAGTCAGACCAACATTGCTACGACCCGTATTCGCACCGACAC | -4.31 ± 0.082 | -0.712 ± 0.069
13 | ACATTTGTTGATACAACCATAAAATGATAATTACACCCATAAATTGATAATTATCACACCCATAAATTGATATTGCCTCTAGCTTGATCTACATTGGATTGCCATTCTCTCACAGTAGCACCGACAC | 0.0681 ± 0.22 | 0.213 ± 0.1
14 | ACATTTGTTGATACAACCATACCCGTCGCCGGCACAAACGCCCGGTCGCCGGCGACACAAACGCCCGGTCGCGGTAAGAGGATCATAGTCAGACCAACATTGCTACGACCCGTATTCGCACCGACAC | -6.48 ± 0.07 | -4.78 ± 0.59
15 | ACATTTGTTGATACAACCATAAAATGATAATTACACCCATAAAGGTCGCCGGCGACACAAACGCCCGGTCGCGGTAAGAGGATCATAGTCAGACCAACATTGCTACGACCCGTATTCGCACCGACAC | -2.2 ± 0.37 | 0.613 ± 0.011
16 | ACATTTGTTGATACAACCATATATTGATATCTCCACCCATAAATTGATATTGCTCACAACCATAAAATGATAATTACTCTGATCATAGTCAGACCAACATTGCTACGACCCGTATTCGCACCGACAC | -0.537 ± 0.12 | -0.381 ± 0.46
17 | ACATTTGTTGATACAACCATAAAGTGATATTTACAACCATAAAGTGATATTTATCACAACCATAAGTTGATATTTTCTCTGATCATAGTCAGACCAACATTGCTACGACCCGTATTCGCACCGACAC | 0.0887 ± 0.14 | -0.279 ± 0.16
